# From PMC6684648 (2019)
# Target: human IGF2R extra-cellular domains 1-15 fused at the C-terminal to rat CD4 (domains 3 + 4), biotin acceptor … (human, UniProt P11717 41-2304, biotin on the BirA acceptor tag)
# Test: SPR
row,Kd,Binder
1,43.5 nM,human glu-plasminogen (88 KD) (natural protein) EPLDDYVNTQGASLFSVTKKQLGAGSIEECAAKCEEDEEFTCRAFQYHSKEQQCVIMAENRKSSIIIRMRDVVLFEKKVYLSECKTGNGKNYRGTMSKTKNGITCQKWSSTSPHRPRFSPATHPSEGLEENYCRNPDNDPQGPWCYTTDPEKRYDYCDILECEEECMHCSGENYDGKISKTMSGLECQAWDSQSPHAHGYIPSKFPNKNLKKNYCRNPDRELRPWCFTTDPNKRWELCDIPRCTTPPPSSGPTYQCLKGTGENYRGNVAVTVSGHTCQHWSAQTPHTHNRTPENFPCKNLDENYCRNPDGKRAPWCHTTNSQVRWEYCKIPSCDSSPVSTEQLAPTAPPELTPVVQDCYHGDGQSYRGTSSTTTTGKKCQSWSSMTPHRHQKTPENYPNAGLTMNYCRNPDADKGPWCFTTDPSVRWEYCNLKKCSGTEASVVAPPPVVLLPDVETPSEEDCMFGNGKGYRGKRATTVTGTPCQDWAAQEPHRHSIFTPETNPRAGLEKNYCRNPDGDVGGPWCYTTNPRKLYDYCDVPQCAAPSFDCGKPQVEPKKCPGRVVGGCVAHPHSWPWQVSLRTRFGMHFCGGTLISPEWVLTAAHCLEKSPRPSSYKVILGAHQEVNLEPHVQEIEVSRLFLEPTRKDIALLKLSSPAVITDKVIPACLPSPNYVVADRTECFITGWGETQGTFGAGLLKEAQLPVIENKVCNRYEFLNGRVQSTELCAGHLAGGTDSCQGDSGGPLVCFEKDKYILQGVTSWGLGCARPNKPGVYVRVSRFVTWIEGVMRNN
2,52.3 nM,"bovine β-glucuronidase (290 KD) (enzyme, mannose 6-phosphate (M6P-beta-glucuronidase)) LQGGMLYPRESRSRERKELDGLWSFRADFSDNRRQGFEQQWYRAPLRESGPTLDMPVPSSFNDVGQDGQLRSFVGWVWYEREITLPQRWTEDLGTRVVLRIGSAHYYAIVWVNGVHVLEHEGGHLPFEADISKLVQSGPLSSCRITIAINNTLSPHTLPPGTILYKTDPSMYPKGYFVQNTKFDFFNYAGLHRSVLLYTTPTTYIDDITVTTDMDQDIGLVNYQIIVQGSDHFQVDVSLLDEEGKVMAKGAGAEGQLQVPSAHLWWPYLMHEHPAYLYSLEVKLTAQTAVGPVSDFYTLPVGIRTVAVTKSQFLINGKPFYFRGVNKHEDADIRGKGFDWPLLVKDFNLLRWLGANAFRTSHYPYSEEVLQLCDRYGIVVIDESPGVGIVLVESFSNVSLQHHLEVMEEMIRRDKNHPAVVMWSLANEPASFLKPAGYYFKTLIAHTKALDPSRPVTFVTNTNYEADLGAPYVDIICVNSYYSWYHDYGHMEVIQLQLATQFENWYKAYQKPMIQSEYGADAIEGFHEDPPLMFSEEYQKGLLQQYHVVLDQKRKEYVVGELIWNFADFMTNQSPVRMIGNRKGIFTRQRQPKSAAFLLRERYWKLANETRYQRSAVTSQCVGSGLFTV"
